T1: Helicobacter pylori histidine kinase CheA, strain G27 (Helicobacter pylori (G27 strain), UniProt B5Z859 1-807)
T1 sequence (looked up): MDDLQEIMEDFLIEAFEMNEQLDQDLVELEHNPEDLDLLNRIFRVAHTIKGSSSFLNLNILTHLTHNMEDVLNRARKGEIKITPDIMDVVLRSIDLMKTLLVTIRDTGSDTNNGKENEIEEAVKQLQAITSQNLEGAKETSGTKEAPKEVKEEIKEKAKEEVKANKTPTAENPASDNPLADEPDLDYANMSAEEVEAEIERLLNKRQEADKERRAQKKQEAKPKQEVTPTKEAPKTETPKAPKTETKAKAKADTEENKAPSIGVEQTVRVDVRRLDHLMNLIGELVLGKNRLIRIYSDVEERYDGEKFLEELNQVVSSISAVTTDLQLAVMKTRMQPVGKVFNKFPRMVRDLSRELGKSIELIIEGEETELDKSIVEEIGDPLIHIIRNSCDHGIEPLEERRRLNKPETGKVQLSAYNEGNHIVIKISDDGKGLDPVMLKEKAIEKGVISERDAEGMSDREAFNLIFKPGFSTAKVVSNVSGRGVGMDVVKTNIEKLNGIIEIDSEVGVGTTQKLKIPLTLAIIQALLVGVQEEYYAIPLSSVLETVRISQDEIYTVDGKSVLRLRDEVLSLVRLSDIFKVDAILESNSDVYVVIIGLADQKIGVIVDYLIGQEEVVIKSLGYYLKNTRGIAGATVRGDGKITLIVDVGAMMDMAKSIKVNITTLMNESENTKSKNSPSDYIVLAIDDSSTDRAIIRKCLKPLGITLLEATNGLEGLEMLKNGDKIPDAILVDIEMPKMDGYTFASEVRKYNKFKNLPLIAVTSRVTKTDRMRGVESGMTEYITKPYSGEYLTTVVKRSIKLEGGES

T2: CheW-CheA complex of Helicobacter pylori (Helicobacter pylori (G27 strain) | …, UniProt B5Z859 1-807; O25152 1-165)
T2 sequence (looked up) 1: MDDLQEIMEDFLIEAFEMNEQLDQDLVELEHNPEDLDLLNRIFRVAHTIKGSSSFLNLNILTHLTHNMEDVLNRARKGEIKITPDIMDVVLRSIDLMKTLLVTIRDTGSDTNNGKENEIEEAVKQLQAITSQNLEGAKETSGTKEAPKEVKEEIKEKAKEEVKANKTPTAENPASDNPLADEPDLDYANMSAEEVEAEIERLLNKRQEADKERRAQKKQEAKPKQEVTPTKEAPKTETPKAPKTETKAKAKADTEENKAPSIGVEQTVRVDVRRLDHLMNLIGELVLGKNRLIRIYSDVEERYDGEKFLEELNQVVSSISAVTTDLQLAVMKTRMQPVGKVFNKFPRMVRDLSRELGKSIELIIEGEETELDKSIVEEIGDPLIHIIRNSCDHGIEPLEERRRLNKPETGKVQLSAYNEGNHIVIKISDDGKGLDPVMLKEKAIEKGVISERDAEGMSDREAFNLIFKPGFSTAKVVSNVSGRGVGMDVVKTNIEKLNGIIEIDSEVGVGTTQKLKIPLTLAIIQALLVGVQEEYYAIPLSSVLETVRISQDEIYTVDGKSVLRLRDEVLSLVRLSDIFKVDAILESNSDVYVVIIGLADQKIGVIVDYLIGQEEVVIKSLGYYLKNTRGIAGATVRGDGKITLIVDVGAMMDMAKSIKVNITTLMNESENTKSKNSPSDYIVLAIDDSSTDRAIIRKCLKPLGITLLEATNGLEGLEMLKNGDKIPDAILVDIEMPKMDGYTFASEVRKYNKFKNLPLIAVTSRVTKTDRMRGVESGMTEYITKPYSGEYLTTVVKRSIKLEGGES
T2 sequence (looked up) 2: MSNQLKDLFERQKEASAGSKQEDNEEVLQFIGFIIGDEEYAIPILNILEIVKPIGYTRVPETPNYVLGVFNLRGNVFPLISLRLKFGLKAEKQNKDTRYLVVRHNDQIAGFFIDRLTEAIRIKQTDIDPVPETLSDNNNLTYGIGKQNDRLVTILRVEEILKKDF


Columns and labels:
[1] = molecular target: T1, Helicobacter pylori histidine kinase …; assay: kinase activity titration
AUC = molecular target: the molecule itself; assay: AUC
[2] = molecular target: T2, CheW-CheA complex of Helicobacter pylori; assay: kinase activity titration

Row | Binder | Kd [1] [µM] | Kd (AUC) [µM] | stoichiometry N (AUC) | Kd [2] [µM]
1 | Helicobacter pylori scaffold protein CheW, strain SS1 (natural protein, Helicobacter pylori (SS1 strain), UniProt O25152 1-165, looked up) MSNQLKDLFERQKEASAGSKQEDNEEVLQFIGFIIGDEEYAIPILNILEIVKPIGYTRVPETPNYVLGVFNLRGNVFPLISLRLKFGLKAEKQNKDTRYLVVRHNDQIAGFFIDRLTEAIRIKQTDIDPVPETLSDNNNLTYGIGKQNDRLVTILRVEEILKKDF | 14.6 |  |  | 
2 | Helicobacter pylori transducer-like protein D (TlpD), strain SS1 (receptor) not shown |  | 0.15 | 2 | 15.2
